Reference: paper PMC8761706
Where “and” joins values, the source holds several entries; their conditions need not be identical. Equal values may be shown once.

How the values were obtained:
[1] = biological target: fibrinogen fragment D (human); assay: fluorescence polarisation; competitive fluorescence anisotropy; unlabeled construct titrated into mixtures of fixed [5F]PR–(R1 → R7) with two frag D concentrations; cubic equation, fit together with the direct titrations
[2] = biological target: fibrinogen fragment D (human); assay: native gel or EMSA; incubated 30 min at 25 °C in 50 mM Hepes, 110 mM NaCl, 5 mM CaCl2, 1 mg/ml PEG-8000, 10 μM FFR-CK and FPR-CK with molar excess of frag D; 6% Tris–glycine gel without SDS, 4 °C; GelCode Blue and fluorescence
[3] = biological target: fibrinogen fragment D (human); assay: fluorescence polarisation; fluorescence anisotropy; [5F]PR–(R1 → R7) titrated with frag D; 'the same buffer'; quadratic fit, n not fixed; independent, noncooperative sites assumed
[4] = biological target: fibrinogen fragment D (human); assay: other fluorescence titration; fluorescein-labeled construct at fixed concentration titrated with frag D; fluorescence intensity; 25 °C; 50 mM Hepes, 110 mM NaCl, 5 mM CaCl2, 1 mg/ml PEG-8000, pH 7.4, 10 μM FPR-CK; quadratic fit; n fixed to 1 for the Ala constructs and MP
[5] = biological target: fibrinogen fragment D (human); assay: other fluorescence titration; fluorescence intensity; 20 mM sodium phosphate, 150 mM NaCl, 1 mg/ml PEG-8000, 10 μM FPR-CK, pH 7.4; n fixed to 1
[6] = biological target: fibrinogen fragment D (human); assay: other fluorescence titration; fluorescence intensity; 20 mM sodium phosphate, 150 mM NaCl, 1 mg/ml PEG-8000, 10 μM FPR-CK, pH 7.0; n fixed to 1
[7] = biological target: staphylocoagulase SC(1–660), full-length (Staphylococcus aureus Newman D2 Tager 104); assay: native gel or EMSA; incubated 30 min at 25 °C in 50 mM Hepes, 110 mM NaCl, 5 mM CaCl2, 1 mg/ml PEG-8000, 10 μM FFR-CK and FPR-CK with molar excess of frag D; 6% Tris–glycine gel without SDS, 4 °C; GelCode Blue and fluorescence
[8] = biological target: fibrinogen fragment D fragment D (Homo sapiens) (UniProt P02671); conditions: cited from earlier work
Sequence of fibrinogen fragment D fragment D (Homo sapiens) (P02671 20-866, chain 1 of 3): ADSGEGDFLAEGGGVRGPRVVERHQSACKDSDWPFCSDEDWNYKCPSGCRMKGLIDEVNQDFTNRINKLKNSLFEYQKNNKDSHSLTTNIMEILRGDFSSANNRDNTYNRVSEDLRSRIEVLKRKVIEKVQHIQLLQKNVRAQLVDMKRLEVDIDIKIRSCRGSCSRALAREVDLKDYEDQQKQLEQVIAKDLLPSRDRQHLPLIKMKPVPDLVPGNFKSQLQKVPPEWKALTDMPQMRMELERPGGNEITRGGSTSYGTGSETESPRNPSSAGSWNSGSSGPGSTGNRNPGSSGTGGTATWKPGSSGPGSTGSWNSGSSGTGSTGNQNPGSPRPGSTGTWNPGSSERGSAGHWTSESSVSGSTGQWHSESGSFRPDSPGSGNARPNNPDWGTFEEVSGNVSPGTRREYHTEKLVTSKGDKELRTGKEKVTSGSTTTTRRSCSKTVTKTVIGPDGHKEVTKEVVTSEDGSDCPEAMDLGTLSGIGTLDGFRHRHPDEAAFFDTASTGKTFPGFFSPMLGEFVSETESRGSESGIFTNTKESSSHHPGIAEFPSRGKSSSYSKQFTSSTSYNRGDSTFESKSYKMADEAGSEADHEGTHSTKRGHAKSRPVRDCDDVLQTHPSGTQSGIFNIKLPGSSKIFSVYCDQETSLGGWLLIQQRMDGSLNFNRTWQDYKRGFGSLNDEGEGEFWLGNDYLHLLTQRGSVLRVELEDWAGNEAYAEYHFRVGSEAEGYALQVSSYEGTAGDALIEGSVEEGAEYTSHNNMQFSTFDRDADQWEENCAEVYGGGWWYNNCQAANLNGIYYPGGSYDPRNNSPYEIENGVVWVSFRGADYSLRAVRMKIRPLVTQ
Sequence of fibrinogen fragment D fragment D (Homo sapiens) (P02675 31-491, chain 2 of 3, further chain): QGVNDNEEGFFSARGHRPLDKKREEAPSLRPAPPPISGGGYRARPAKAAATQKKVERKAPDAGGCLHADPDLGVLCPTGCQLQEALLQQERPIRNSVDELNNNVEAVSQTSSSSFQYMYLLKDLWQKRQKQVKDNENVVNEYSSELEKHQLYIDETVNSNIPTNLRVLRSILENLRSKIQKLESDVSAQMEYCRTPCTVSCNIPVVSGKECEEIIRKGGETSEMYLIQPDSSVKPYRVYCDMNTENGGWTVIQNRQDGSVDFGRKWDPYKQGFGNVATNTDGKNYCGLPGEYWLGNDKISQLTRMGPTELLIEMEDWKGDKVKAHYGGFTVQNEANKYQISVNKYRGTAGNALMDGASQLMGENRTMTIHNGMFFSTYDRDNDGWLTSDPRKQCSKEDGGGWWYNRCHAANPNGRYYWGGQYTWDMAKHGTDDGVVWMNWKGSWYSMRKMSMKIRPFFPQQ
Sequence of fibrinogen fragment D fragment D (Homo sapiens) (P02679 27-453, chain 3 of 3, further chain): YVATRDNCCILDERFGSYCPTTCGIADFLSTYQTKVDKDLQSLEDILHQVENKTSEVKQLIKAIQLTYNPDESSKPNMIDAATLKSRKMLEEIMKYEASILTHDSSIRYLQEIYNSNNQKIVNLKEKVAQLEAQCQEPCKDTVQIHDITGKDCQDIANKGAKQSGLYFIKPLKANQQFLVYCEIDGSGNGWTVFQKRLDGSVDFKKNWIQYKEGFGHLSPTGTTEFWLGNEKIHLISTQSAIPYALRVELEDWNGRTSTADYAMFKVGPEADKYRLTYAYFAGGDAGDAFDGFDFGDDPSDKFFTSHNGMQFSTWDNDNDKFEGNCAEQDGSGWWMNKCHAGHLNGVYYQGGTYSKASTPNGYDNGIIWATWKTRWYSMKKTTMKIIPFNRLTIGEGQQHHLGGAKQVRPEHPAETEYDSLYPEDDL

PR–R1R2R3 (unlabeled competitor) (domain or fragment)
stoichiometry N (mol frag D/mol repeat) [1]: 3.3 and 3.5 and 2.5

PR–R1R6R7 (unlabeled competitor) (domain or fragment)
Kd [1]: 8 nM | stoichiometry N (mol frag D/mol repeat) [1]: 3

PR–R3R4R7 (unlabeled competitor) (domain or fragment)
Kd [1]: 42 nM | stoichiometry N (mol frag D/mol repeat) [1]: 2.8

PR–R3R6R7 (unlabeled competitor) (domain or fragment)
Kd [1]: 42 nM | stoichiometry N (mol frag D/mol repeat) [1]: 3

[5F]PR–(R1 → R7), full-length C-terminal repeat construct (domain or fragment)
stoichiometry N (frag D per construct) [2]: 7 | stoichiometry N (mol frag D/mol repeat) [3]: 5.2 and 4.8 and 5.1

[5F]PR–R1 (domain or fragment)
stoichiometry N (mol frag D/mol repeat) [4]: 1

[5F]PR–R1R2R3 (domain or fragment)
stoichiometry N (frag D per construct) [2]: 3

[5F]PR–R1R6R7 (domain or fragment)
stoichiometry N (frag D per construct) [2]: 3

[5F]PR–R2 (domain or fragment)
Kd [4]: 130 nM | stoichiometry N (mol frag D/mol repeat) [4]: 0.9

[5F]PR–R3 (domain or fragment)
Kd [4]: 99 nM | stoichiometry N (mol frag D/mol repeat) [4]: 1.1

[5F]PR–R6 (domain or fragment)
Kd [4]: 115 nM | stoichiometry N (mol frag D/mol repeat) [4]: 0.8

[5F]PR–R7 (domain or fragment)
Kd [4]: 112 nM | stoichiometry N (mol frag D/mol repeat) [4]: 0.8 | Kd [5]: 27 nM | Kd [6]: 3000 nM

[5F]PR–R7-SETNA (domain or fragment)
Kd [4]: 120 nM

[5F]ProT, prothrombin labeled at the active site with 5-fluorescein (natural protein)
stoichiometry N [7]: 1 mol/mol

staphylocoagulase PR-R1 (from UniProt P07767)
Kd [8]: 36 nM

staphylocoagulase SC(1–660), full-length (natural protein)
stoichiometry N (frag D per SC(1–660)) [2]: 5 and 6
